Laboratory results reported in paper doi:10.1101/2024.12.17.628889.

Target: wild-type PERK BiFC construct (pEZY BiFC pre-NV(CV)-PERK) (human) (UniProt Q9NZJ5)
Assay: split reporter

UniProt Q9NZJ5, sequence (Q9NZJ5 30-1116): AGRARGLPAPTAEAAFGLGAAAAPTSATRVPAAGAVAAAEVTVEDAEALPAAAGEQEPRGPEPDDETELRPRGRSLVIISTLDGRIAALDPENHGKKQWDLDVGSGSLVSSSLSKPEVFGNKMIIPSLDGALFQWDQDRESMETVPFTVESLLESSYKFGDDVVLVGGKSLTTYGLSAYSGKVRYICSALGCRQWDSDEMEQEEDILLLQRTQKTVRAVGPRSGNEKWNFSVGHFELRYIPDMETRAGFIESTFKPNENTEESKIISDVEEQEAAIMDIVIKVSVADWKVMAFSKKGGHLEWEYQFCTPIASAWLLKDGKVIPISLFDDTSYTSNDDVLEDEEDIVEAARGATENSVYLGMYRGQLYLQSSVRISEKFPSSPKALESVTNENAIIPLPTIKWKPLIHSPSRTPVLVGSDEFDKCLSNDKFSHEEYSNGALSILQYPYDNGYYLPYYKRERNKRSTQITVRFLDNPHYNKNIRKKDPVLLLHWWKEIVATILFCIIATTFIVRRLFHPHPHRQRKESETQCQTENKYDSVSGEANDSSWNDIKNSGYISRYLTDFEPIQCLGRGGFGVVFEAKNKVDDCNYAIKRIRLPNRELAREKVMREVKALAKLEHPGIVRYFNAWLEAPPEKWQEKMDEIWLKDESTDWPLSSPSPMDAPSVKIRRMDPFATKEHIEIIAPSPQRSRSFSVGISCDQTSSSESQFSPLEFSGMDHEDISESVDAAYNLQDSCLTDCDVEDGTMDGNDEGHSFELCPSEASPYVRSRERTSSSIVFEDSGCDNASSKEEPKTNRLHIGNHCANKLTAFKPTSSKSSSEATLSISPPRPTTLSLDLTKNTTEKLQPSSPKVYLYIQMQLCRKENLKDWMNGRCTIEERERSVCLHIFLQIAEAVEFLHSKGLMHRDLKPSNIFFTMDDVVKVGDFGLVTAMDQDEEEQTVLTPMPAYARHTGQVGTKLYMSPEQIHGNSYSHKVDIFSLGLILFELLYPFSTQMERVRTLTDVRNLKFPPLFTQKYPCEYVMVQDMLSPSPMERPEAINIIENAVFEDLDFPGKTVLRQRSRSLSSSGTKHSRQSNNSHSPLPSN

Question: With “CDNF BiFC construct (pEZY BiFC pre-CDNF-NV(CV)) (from UniProt Q49AH0 25-187) (natural protein)” as the substance, how does the BiFC fluorescence intensity relative to the CDNF-IRE1α interaction read?
Answer: 7 times higher

Question: Which BiFC fluorescent signal relative to wt CDNF and the other mutants does the source give for “CDNF K122A BiFC construct (natural protein)” here?
Answer: 5 times lower
